Measured values from publication PMC10208028 (Chemical Science, 2023).

B1: 15N-labeled Cyt c with 104 amino acid residues (natural protein)
chain: not shown
modifications: 15N-labeled; covalently attached heme group
B2: Cytochrome c (natural protein)
chain: not shown
modifications: covalently attached heme group

Tests used:
[1] = biological target: T1, amyloid-β 42 (UniProt P05067 672-713); assay: NMR titration
[2] = biological target: T1, amyloid-β 42; assay: native MS

Binder	binding result [1]	stoichiometry N [2]
B1	binds	–
B2	–	1 Cyt c : Aβ42
